Laboratory results taken from IntAct's records for PubMed 37582800.

B1: Protein MalY (Escherichia coli (strain K12)), P23256 (parent)
chain: MFDFSKVVDRHGTWCTQWDYVADRFGTADLLPFTISDMDFATAPCIIEALNQRLMHGVFGYSRWKNDEFLAAIAHWFSTQHYTAIDSQTVVYGPSVIYMVSELIRQWSETGEGVVIHTPAYDAFYKAIEGNQRTVMPVALEKQADGWFCDMGKLEAVLAKPECKIMLLCSPQNPTGKVWTCDELEIMADLCERHGVRVISDEIHMDMVWGEQPHIPWSNVARGDWALLTSGSKSFNIPALTGAYGIIENSSSRDAYLSALKGRDGLSSPSVLALTAHIAAYQQGAPWLDALRIYLKDNLTYIADKMNAAFPELNWQIPQSTYLAWLDLRPLNIDDNALQKALIEQEKVAIMPGYTYGEEGRGFVRLNAGCPRSKLEKGVAGLINAIRAVR
partner: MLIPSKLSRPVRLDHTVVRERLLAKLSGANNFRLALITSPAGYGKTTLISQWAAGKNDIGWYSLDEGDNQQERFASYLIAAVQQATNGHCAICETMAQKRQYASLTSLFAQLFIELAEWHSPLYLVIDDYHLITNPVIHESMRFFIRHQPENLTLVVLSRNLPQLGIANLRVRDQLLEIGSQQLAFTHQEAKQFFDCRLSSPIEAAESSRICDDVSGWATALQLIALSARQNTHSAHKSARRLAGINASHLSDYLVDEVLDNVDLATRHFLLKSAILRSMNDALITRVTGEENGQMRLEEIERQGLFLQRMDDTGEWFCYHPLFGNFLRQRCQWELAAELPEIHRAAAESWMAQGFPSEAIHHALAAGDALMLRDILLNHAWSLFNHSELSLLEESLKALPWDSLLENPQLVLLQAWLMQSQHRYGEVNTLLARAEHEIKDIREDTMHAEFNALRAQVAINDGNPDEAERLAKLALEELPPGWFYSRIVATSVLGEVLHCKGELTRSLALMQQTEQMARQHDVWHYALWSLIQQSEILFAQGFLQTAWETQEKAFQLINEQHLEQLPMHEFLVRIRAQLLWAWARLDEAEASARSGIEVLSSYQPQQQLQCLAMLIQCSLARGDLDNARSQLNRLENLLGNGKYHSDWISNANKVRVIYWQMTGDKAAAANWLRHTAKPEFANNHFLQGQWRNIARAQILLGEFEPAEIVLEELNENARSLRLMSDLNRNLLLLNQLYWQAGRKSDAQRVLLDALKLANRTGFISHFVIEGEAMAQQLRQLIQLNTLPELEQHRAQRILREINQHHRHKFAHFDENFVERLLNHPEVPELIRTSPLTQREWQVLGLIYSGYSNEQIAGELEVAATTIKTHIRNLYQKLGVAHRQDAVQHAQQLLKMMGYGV
B2: HTH-type transcriptional regulator MalT (Escherichia coli (strain K12)), P06993 (parent)
chain: B1 partner
partner: B1 chain

Variants of: B1
Details: with malt_ecoli malT

effect of a mutation on the interaction | Variant
with no effect | MFDFSKVVDRHGTWCTQWDYVADRFGTADLLPFTISDMDFATAPCIIEALNQRLMHGVFGYSRWKNDEFLAAIAHWFSTQHYTAIDSQTVVYGPSVIYMVSELIRQWSETGEGVVIHTPAYDAFYKAIEGNQRTVMPVALEKQADGWFCDMGKLEAVLAKPECKIMLLCSPQNPTGKVWTCAELAIMADLCERHGVRVISDEIHMDMVWGEQPHIPWANVARGDWALLTSGSKSFNIPALTGAYGIIENSSSRDAYLSALKGRDGLSSPSVLALTAHIAAYQQGAPWLDALRIYLKDNLTYIADKMNAAFPELNWQIPQSTYLAWLDLRPLNIDDNALQKALIEQEKVAIMPGYTYGEEGRGFVRLNAGCPRSKLEKGVAGLINAIRAVR [D182A;E185A;S218A]

Variants of: B2
Details: with maly_ecoli malY

Variant | effect of a mutation on the interaction
E140A | with no effect
R143A;R173A | disrupting interaction strength
R143A | disrupting interaction strength

Results, then the variant that gave them:

effect of a mutation on the interaction | Variant
disrupting interaction strength | R173A
with no effect | N169A
